Experiment: soluble fraction after stress (log2 fold change); higher = more stays soluble; pooled small domains, quantitative proteomics
Settings: stress: 50 degC
Procedure, shortened: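 Pooled custom libraries of small protein domains were each held under stress at 50°C. The read-out, high-throughput quantitative proteomics, tracked how much of each protein stayed soluble. This is reported as a base-two log fold change used to indicate aggregation propensity. Higher values mean more protein remains in solution.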

Sequence	soluble fraction (log2)
HMDAVTYAKGSSGETVREIQQLLLDWGYYSGEVDGIFGSRTEDAVEYFQRKNGLTVDGKVGPATLEALGIS	-0.0183
HMDSIDVQQKKLLTDIELGNIEGIKLFLKRHNNTINFLTIKGFHPLVYAVRNNNMEIVNLFLTT	0.172
HMDDPWHNLANAIVAVAADDYRSALRNEDEGLLKSLELFFHSEWYRILTDVDADRLLGMLRRERS	-1.62
HMELVQIIGNNIRDLMTTRSVTITDLANYLNVSRQTLQNYLRGSNIIDSVKLVAVSDFFDVPVESLLQSK	-1.04
HMENQMIIYIDENDENKRLDSYLSEITPDYSRSKIQNFIKNGNVTVNDSNKKPSYLLKENDKISFELPQQ	0.00635
HMDLIFQKGDLVFSTEHNQRGIFYEYLEQGQAKISIEKQFFVVAARRLQLLTKREVLYPAGYDLDQLFV	-0.0465
HMLPNIKSEMEILGDNAKARLEAAELWSKKYLSNEAYDTMSKLATTADGVKAIEEIMNITKS	-0.0779
HMAYLTGFHAIEELIRAGKAKGPLLVANAGPRARTIMSLATDNKIRIDRLGEHELNRLAPGNRGIALYVE	0.13
HMTHPQVEAYLDDLARMLADIDPGERDDILASVREHLDAEIAAGHGSDAVVNATLLRLGPPEQVAAAARTN	-0.0824
HMGQERAVPDVKGQSFDMAQGNISRAGLKAVVTDSVYDSYARPGTVVEQSPIPLAKIKRGGTVYLTLVA	-0.105
HMALLSNEDIMFNLEFNRDLAVASNDGVSRDEFLRNKYGISEEEYNMLRARYGDGLNAARIKEYVGQRD	0.104
HMIVEIVPSALHGERVDRIVAFILDVSRSVASGLVERGAVHVDGSVETSGKVRLVEGQEVSVDPSQVPG	-0.46
HMGVTGYPNPTREHITWDDARRIEVWNAYGVPVADLRFARGVLDVAGWPVGTYVARIDGGRSVRFVVI	-0.19
HMNSLGYSDFVVDVQNERVASVVIEGLIINGERRDGTKFRTVLPTIGDQRLMDDLINHNVKVLARE	0.236
HMESKPLTPSEIKKLRMDANMTQAGLAEVLGMTVKAVEAWESGRNIPSGAADKILRVMQKHPSVIGMMQS	0.156
HMKIEETLGKTAQVYIPIPQYLSGIGKVTLSVRGSLRELDAMTEEEKIPSNTIVRIVKVQDQVLFVKRA	-0.74
HMAGGVFELTGKVTADAKAGDLVYVKAATGAGTKPVVTTVKTGADVIIGWLKEPVSSASVDQKMQVVLA	0.147
HMATLAVPNLMRLSQGEAMALIRLSGLSIGNVSIDSSMGSPRVIRQEPQASGGMLVLTQGDQVHLWLEGP	-3.2
HMKKMSFKEAFLKYVEIKDNPYNMESVKMLVSLQPLIVKAYSILGVDKVRRLNYVKTKIQDAIINGD	-1.9

Sequence	soluble fraction (log2)
HMFMNFAEHLMALRKQRGWSQEELGSQIGVTRQTVSKWEMGQSTPELEKLVELSRLFGMSIDQLVGL	0.0203
HMDLKHNQITMRELLRNKQAYLLLYKEFPMFMTPAILQNIRPLTLQQIIQMVRPYISRPKLNMLLEQLENI	-0.124
HMYAMTAEDWIVSGNRKYINDDLQGAIADYTKAIEIDPNYAAIYLVRGKAKYELKNYQGAIEDYTKAIE	-1.13
HMGQDGFIGLEAAKKLVLQKLGLTSAEFIKAELDAEDRKYELELIVDGIEYDFDIDAYSGAFLKQEQETV	-0.215
HMKTMEQSYIGRKIILDENVEDSALIKFEGIYWTFKSVSGPLKKGTEVEIIGIEGNKILIKNK	-0.198
HMSTQVPDVKERSQEEARSILESAGFKVTPAVKTEDSADIAKDMVTKTDPAAGQSVPKGTTITIYVSS	0.149
HMERFVVISKDKYANLREEASTNSKVLAKVDNSYLIYNTNTYNENKDWYSVQIERDGNYYQVGYIHKSQL	-1.79
HMHTDDDGITEAFPHLRLLSLGEDILDLLEKSRFIRKLNNELVYYVVDFREQNSIDGRRYHPSIYHNL	-0.258
HMLTKSELVFDTLKKRIIDGELEPGTELVISRISEEFNVSTIPVREAIKTLASEGLVEMEPHKSAKVAE	-0.0631
HMAHKRVDGTIVTPLTADTIVLRTGTHGEQPFEIRDTTRHKLESLQKGDMVILLIDTDNKVIDVAIPP	0.423
HMGKKGPELSENEKSIFSILSKSGSMDLTTLKEASGLSNKQWDKGIKGLGKHGLTKVIKTEDALLVEVV	0.0505
HMDEDTWKLYKRAYKKYYARYMKGNMSEAAFKAWGEQAAADRDAAIEQLRATTDAALSASIIQQLKEKLNR	-0.581
HMGAYPENSLLKERGQSAVYLIQENRKRLFFNAEAFLINGYNWKDIQVVDDLSKILTGKVIYAK	-2.76
HMQDFEQNLFDGKSIYDRMLSKFSLHNVDVKQLVAHFKRKDTEQFFADIGRGLITSAQMLGFLQT	-0.289
HMGDIQFMEYRINHSSGWIGKNISDFAAVSKNLVILIKRGQDVVIPRGPTAIMEDDVLVLHA	-1.6
HMAQTEIIRVTKDIKKGDAITADKFEKVKVGAYNLPGNVVKNADELKGKFAAADLVRGDYILTSKLTDNP	0.146
HMVGKGASIILDRVNLPQYLEKFNEDGFDTIESLKNLNEIDLKEMGVKKGHIRVILNYLHEEY	-0.501
HMQQTAEDWKNKGDSLTAQSEYVEAIAAYDEAIRLDPNYAPAWSNKGNALKNLGEYYKAIQAYDEAIRL	0.198
HMHDEKHHQLANEIARKWAALRGNRDFAAADELKNLAAEAGVELQATKQAVGQGALAKLKENFDPVKLEAL	0.188
